Legend:
[1] = test system: T1, sCMGE10 (single Cdc45-MCM-GINS-Polε with Mcm10); test: cryo-EM structure of complex ([…]-3.[…] Å); type: binding, Saccharomyces cerevisiae; settings: assembled with 5 mM ATP, magnesium acetate, pH 7.6, bound to origin DNA; MCM ATPase sites
T1 construct: gene MCM2; His- or TwinStrepII-tagged GINS; MCM loaded as Mcm2-7/Cdt1; wild type; ATP/ADP in MCM ATPase tier; with Cell division control protein 45; DNA replication complex GINS protein PSF1; DNA replication complex GINS protein PSF2; DNA replication complex GINS protein PSF3; DNA replication complex GINS protein SLD5; DNA polymerase epsilon catalytic subunit A; DNA polymerase epsilon subunit B; DNA polymerase epsilon subunit C; DNA polymerase epsilon subunit D; Minichromosome maintenance protein 10

Mcm10 wild-type = molecular target: T2, Mcm10 wild-type (Saccharomyces cerevisiae, UniProt P32354 1-571); test: MST; 10 mM Mg acetate; MST: 25 mM HEPES-KOH pH 7.6, 100 mM K-glutamate, 10 mM Mg acetate, 0.02% NP-40, 0.5 mM TCEP, 5 nM ssDNA, room temperature, 30 min; CMG assembly/EM: same buffer; settings: protein: recombinant; tags: N-terminal His, C-terminal Flag (pHis-Mcm10-Flag); label: FAM (after the 3' end)
T2 sequence: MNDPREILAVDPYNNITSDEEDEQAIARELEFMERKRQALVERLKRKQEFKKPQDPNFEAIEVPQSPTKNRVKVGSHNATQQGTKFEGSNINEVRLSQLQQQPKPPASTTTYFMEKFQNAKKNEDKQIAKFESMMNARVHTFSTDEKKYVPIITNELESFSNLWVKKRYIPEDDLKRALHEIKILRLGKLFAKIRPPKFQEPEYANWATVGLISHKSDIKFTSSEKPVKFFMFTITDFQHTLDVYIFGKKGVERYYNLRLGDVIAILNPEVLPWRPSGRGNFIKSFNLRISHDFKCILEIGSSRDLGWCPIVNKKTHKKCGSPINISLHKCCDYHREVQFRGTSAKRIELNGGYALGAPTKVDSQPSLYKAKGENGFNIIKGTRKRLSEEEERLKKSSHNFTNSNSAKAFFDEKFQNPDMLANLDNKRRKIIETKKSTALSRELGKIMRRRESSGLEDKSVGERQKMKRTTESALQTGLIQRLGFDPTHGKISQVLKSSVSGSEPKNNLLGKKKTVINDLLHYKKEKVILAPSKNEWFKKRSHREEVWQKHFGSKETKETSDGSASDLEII

[2] = molecular target: T3, Mcm10 3A (OB-fold mutant) (Saccharomyces cerevisiae, UniProt P32354 1-571, F230A;Y245A;F247A); test: as above; settings: protein: recombinant; label: FAM (after the 3' end)
T3 sequence: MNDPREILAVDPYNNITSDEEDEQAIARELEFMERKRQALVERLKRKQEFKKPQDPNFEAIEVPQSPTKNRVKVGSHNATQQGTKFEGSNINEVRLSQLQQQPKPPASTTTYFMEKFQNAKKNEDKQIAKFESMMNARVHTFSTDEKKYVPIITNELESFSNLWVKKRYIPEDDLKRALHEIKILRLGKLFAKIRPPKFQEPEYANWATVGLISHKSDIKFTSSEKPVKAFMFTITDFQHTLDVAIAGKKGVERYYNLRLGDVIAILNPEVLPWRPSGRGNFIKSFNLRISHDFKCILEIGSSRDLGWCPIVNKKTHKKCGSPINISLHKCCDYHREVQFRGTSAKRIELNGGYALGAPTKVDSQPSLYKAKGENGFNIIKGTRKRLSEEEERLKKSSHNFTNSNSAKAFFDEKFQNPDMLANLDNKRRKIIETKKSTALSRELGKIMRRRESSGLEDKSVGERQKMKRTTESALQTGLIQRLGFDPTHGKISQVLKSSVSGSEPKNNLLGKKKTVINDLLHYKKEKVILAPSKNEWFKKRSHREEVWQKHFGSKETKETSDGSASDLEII

Mcm10 deltaCTD = molecular target: T4, Mcm10 deltaCTD (Saccharomyces cerevisiae, UniProt P32354 1-357, del358-571); test: as above; settings: protein: recombinant; tags: N-terminal 6xHis, C-terminal 3xFlag; label: FAM (after the 3' end)
T4 sequence: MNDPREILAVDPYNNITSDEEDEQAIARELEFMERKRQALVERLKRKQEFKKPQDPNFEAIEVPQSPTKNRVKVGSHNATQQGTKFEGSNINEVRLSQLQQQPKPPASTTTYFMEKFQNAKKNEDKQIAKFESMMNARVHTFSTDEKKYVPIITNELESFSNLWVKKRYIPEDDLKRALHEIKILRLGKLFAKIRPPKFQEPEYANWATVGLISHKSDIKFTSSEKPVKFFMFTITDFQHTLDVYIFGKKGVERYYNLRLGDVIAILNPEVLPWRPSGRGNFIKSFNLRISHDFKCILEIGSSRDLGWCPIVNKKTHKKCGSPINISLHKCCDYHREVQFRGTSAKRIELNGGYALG

Nc1ncnc2c1ncn2[C@@H]1O[C@H](COP(=O)(O)OP(=O)(O)O)[C@@H](O)[C@H]1O [ADP]
cryo-EM structure of complex (3.7-3.9 Å) [1]: Cryo-EM density for nucleotide ATP and ADP for consensus, ssDNA and nexus map

Nc1ncnc2c1ncn2[C@@H]1O[C@H](COP(=O)(O)OP(=O)(O)OP(=O)(O)O)[C@@H](O)[C@H]1O [ATP]
cryo-EM structure of complex (3.7-3.9 Å) [1]: Cryo-EM density for nucleotide ATP and ADP for consensus, ssDNA and nexus map

CCCCCCCCCCCC (ssDNA) [FAM-labelled dC12 ssDNA]
binding result (Mcm10 wild-type): binds | binding result [2]: no binding | binding result (Mcm10 deltaCTD): binds
